US20250290928A1, “METHOD, KIT AND DEVICE FOR DETECTING EXTRACELLULAR VESICLES” (priority 2022, published 2025)
*: point of attachment. 5FAM = O=C1OC2(c3ccc(O)cc3Oc3cc(O)ccc32)c2ccc(C(=O)*)cc21; TQ2 = quencher

Target: T1, MMP14 in the MDA-MB-231-derived extracellular vesicles (Homo sapiens, UniProt P50281)
T1 construct: in terms of intact MMP14 with a molecular weight of 70 kDa
Test: Digital detection through MMP14 activity of MDA-MB-231-derived extracellular vesicles captured on Tim4-immobilized magnetic particles
Type: biochemical
Conditions: for Particle Expected value λ / Particle Number of positives / Particle Positive ratio: Table 52, particles modified with Tim4; for Particle Expected value λ / Particle Number of positives / Particle Positive ratio / Particle Expected value Δλ / Particle Δ Number of positives / Particle Δ Positive ratio: 4 hr; for Particle Expected value Δλ / Particle Δ Number of positives / Particle Δ Positive ratio: Table 53, BG subtracted
Protocol: Magnetic particles included in PS Capture (trademark) Exosome Flow Cytometry Kit (manufactured by FUJIFILM Corporation) were used as magnetic particles. In this kit, binding of an extracellular vesicle to a Tim4-immobilized magnetic particle is utilized.
800 μL of Exosome Capture Beads were aliquoted in a 1.5 mL microtube, vortexed for 5 seconds, spun down in a benchtop centrifuge, and then placed on a magnetic stand. After still standing for 1 minute, the supernatant was removed by pipetting. 1 mL of x1 WB (+Enhancer) prepared from x10 Washing Buffer and x100 Exosome Binding Enhancer included in the kit was added to the residue, the mixture was vortexed for 5 seconds, spun down in a benchtop centrifuge, and then placed on a magnetic stand. After still standing for 1 minute, the supernatant was removed by pipetting. This operation was repeated three times.
800 μL of the buffer (4) was added to the magnetic particle pellets, and the mixture was vortexed for 30 seconds to provide a homogeneous magnetic particle suspension. 60 μL of the suspension was aliquoted into each of twelve 1.5 mL microtubes.
The concentration of the solution is 4 μg/mL. […] Further, the concentration of the x1/5 solution was set to be the highest concentration, and 10-fold dilution was performed in four stages. Thus, 10-fold dilution samples in a total of five stages were obtained.
The magnetic particle suspension that had been aliquoted in each amount of 60 μL in the section “(Preparation of Particles)” was vortexed for 5 seconds, spun down in a benchtop centrifuge, and then placed on a magnetic stand. After still standing for 1 minute, the supernatant was removed by pipetting.
After that, the above-mentioned mixed solution was spun down in a benchtop centrifuge, then placed on a magnetic stand, and left to stand still for 1 minute. After that, the supernatant was removed by pipetting, 300 μL of the buffer (4) was added to the residue, and the mixture was vortexed for 5 seconds. The mixture was spun down in a benchtop centrifuge, then placed on a magnetic stand, and left to stand still for 1 minute. The same operation was further repeated twice.
For detection of MMP14 activity, 1 mM Custom #1 and Custom #2 were diluted with the buffer (4) to prepare MMP14 detection solutions containing 5 μM Custom #1 and Custom #2, respectively.
The supernatant of the mixed solution of the magnetic particles and the extracellular vesicles subjected to the washing was removed by pipetting, and 60 μL of each of the MMP14 detection solutions was added to each of the magnetic particle pellets to prepare a reaction solution for wells.
Magnosphere (trademark) MS300/Streptavidin (manufactured by JSR Corporation) (hereinafter abbreviated as “MS300S”) was used as magnetic particles. The magnetic particles were modified with Tim4 through use of Biotin-labeled Exosome Capture included in MagCapture (trademark) Exosome Isolation Kit PS Ver. 2 (manufactured by FUJIFILM Corporation) (hereinafter abbreviated as “PS2”) to prepare Tim4-immobilized magnetic particles.
10 μL of Biotin-labeled Exosome Capture was added to the suspension, and the mixture was vortexed for 5 seconds so that the contents were mixed. The mixture was subjected to a reaction for 10 minutes while the contents were mixed by inversion at room temperature with a rotator. After that, the resultant was spun down in a benchtop centrifuge, and then placed on a magnetic stand. After still standing for 1 minute, the supernatant was removed by pipetting. 500 μL of x1 I/WB (±Enhancer) was added to the residue, and the mixture was vortexed for 5 seconds, spun down in a benchtop centrifuge, and then placed on a magnetic stand. After still standing for 1 minute, the supernatant was removed by pipetting. This operation was further repeated twice. […]

[1] = Example 49, PS Capture Tim4 particles, 30° C., 4 h

## [5-FAM]GRIGFLRTAK(TQ2)[OH] (5FAM-GRIGFLRTAK(TQ2)-OH) [Custom #1]
Example 49, 6×10^5 particles, 3 μg of protein at x1
  number of the extracellular vesicles: 1.04×10^6
[1]
  expected value Δλ per particle (value obtained by subtracting BG) at a concentration of x1: 1.7373
  number of the extracellular vesicles: 3.47×10^5 /μg of protein
MB231 concentration x1/5
  Particle Expected value λ: 0.831
  Particle Number of positives: 1,240
  Particle Positive ratio: 0.5644
MB231 concentration x1/50
  Particle Expected value λ: 0.06966
  Particle Number of positives: 165
  Particle Positive ratio: 0.06729
  Particle Expected value Δλ: 0.05749
  Particle Δ Number of positives: 137
  Particle Δ Positive ratio: 0.05587
MB231 concentration x1/500
  Particle Expected value λ: 0.03312
  Particle Number of positives: 89
  Particle Positive ratio: 0.03258
  Particle Expected value Δλ: 0.02258
  Particle Δ Number of positives: 61
  Particle Δ Positive ratio: 0.02233
MB231 concentration x1/5,000
  Particle Expected value λ: 0.01344
  Particle Number of positives: 41
  Particle Positive ratio: 0.01335
  Particle Expected value Δλ: 0.00424
  Particle Δ Number of positives: 13
  Particle Δ Positive ratio: 0.00423
MB231 concentration x1/50,000
  Particle Expected value λ: 0.01169
  Particle Number of positives: 30
  Particle Positive ratio: 0.01162
  Particle Expected value Δλ: 0.00078
  Particle Δ Number of positives: 2
  Particle Δ Positive ratio: 0.00077
MB231 concentration x1
  Particle Expected value Δλ: 0.8022
  Particle Δ Number of positives: 1,212
  Particle Δ Positive ratio: 0.5517
